Reference: paper PMC4381072, “Short antisense-locked nucleic acids (all-LNAs) correct alternative splicing abnormalities in myotonic dystrophy”

T1: MBNL1 (isoform encoded by exons 1-4) (UniProt Q9NR56 1-269)
T1 sequence: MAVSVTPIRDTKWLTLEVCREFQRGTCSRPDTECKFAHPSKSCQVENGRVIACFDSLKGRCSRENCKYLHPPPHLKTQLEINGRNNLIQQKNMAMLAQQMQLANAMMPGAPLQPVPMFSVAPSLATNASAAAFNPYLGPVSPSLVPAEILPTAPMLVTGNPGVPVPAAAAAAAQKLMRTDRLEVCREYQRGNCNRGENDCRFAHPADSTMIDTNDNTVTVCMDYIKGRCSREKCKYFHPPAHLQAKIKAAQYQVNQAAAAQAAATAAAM


Biological target: T1, MBNL1 (isoform encoded by exons 1-4)
Experiment: filter binding; 0-500 nM MBNL1; 0.5 nM oligomer; FBA: FBB (50 mM Tris-HCl pH 8.0, 1 mM MgCl2, 0.05% Tween 20) with 250 mM NaCl and 15 mM KCl, 37 C, 30 min, 30 ul
Details: protein: recombinant; tags: N-terminal GST; C-terminal His6; label: radiolabeled; single strand

Binder	binding result
CAGCAGCAGC (XNA, all LNA, phosphodiester) [PO-LNA-CAG-10]	no binding
CAGCAGCA (XNA, all LNA, phosphodiester) [PO-LNA-CAG-8]	no binding
